Experimental findings from article PMC2710984 (International Journal of Peptide Research and Therapeutics, 2006) are described below.

Square brackets hold non-standard residues; d marks the D form. Ends that are not written are not given here. Gly(cPr) = N[C@H](C(=O)O)C1CC1; Chg = N[C@H](C(=O)O)C1CCCCC1; Pip = O=C(O)[C@@H]1CCCCN1; Abu = CC[C@H](N)C(=O)O; Aib = CC(C)(N)C(=O)O

The target in the assay is GST–BIR3 fusion protein (XIAP BIR3 domain). Put plainly: FMAT bead-based fluorescence competition assay.
On to [Gly(cPr)]VPF-NH2 [Cpg–VPF (compound 12)], for which the IC50 (usually the point on the concentration scale where inhibition reaches its midpoint) is > 1.6 µM.

For [Chg]VPF-NH2 [Chx–VPF (compound 13)], the half-inhibitory concentration (IC50) was > 1.6 µM.

The molecule AV[Pip]F-NH2 [AV–Pip–F (compound 21)] yielded an IC50 of 0.71 µM. This counts as sub-micromolar.

Regarding [Aib]VPF-NH2 [Dmg–VPF (compound 11)], the IC50 was > 1.6 µM.

In turn, [Abu]VPF-NH2 [Abu–VPF (compound 9)] showed an IC50 of 0.12 µM.

In the case of A[Gly(cPr)]PF-NH2 [A–Cpg–PF (compound 18)], the IC50 is > 1.6 µM.
